Reference: publication PMC3760798

What was measured:
[1] = biological target: p300 (UniProt B2RWS6); test: anti-p300 co-IP from nuclear extract, time course; settings: reference: wild type; sites S467
[2] = biological target: CBP (CREB-binding protein) (UniProt P45481); test: anti-CBP co-IP from nuclear extract, time course; settings: reference: wild type; sites S467
[3] = biological target: GB1-tagged RelA-TA2 fragments (all ITC titrations); test: ITC; all ITC titrations taken together (50 mM or 150 mM NaCl); 25°C; 20 mM Tris pH 8.0, 1 mM DTT; single-binding site model

TAZ1 domain of mouse CBP (residues 340–439), sequence (P45481 340-439): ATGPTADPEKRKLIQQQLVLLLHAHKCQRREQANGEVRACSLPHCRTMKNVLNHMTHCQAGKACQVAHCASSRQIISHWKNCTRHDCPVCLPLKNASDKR

| Substance | binding against the reference [1] | binding against the reference [2] | stoichiometry N [3] |
| --- | --- | --- | --- |
| RelA (p65) (from UniProt Q04207) S467A | weaker | weaker |  |
| TAZ1 domain of mouse CBP (residues 340–439) (from UniProt P45481 340-439) (domain or fragment) |  |  | 0.9 to 1.2 |
